Measurements from US12281340B2, “Method of producing N-acyl-amino group-containing compound” (AJINOMOTO CO., INC., priority 2018, dated 2025).

How the values were obtained:
Assay type in all cases: biochemical
Set-up in all cases: key: +: Detected; −: Not detected
[1] = Synthesis of N-caprinoylamino acid using purified acylamino acid synthetase, UPLC-MS detection; conditions: +ATP
Method in brief: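 Purified enzyme (50 μg) with 5 mM amino acid, 5 mM sodium caprate, 10 mM ATP, 10 mM MgCl2, 1 mM DTT in Tris-HCl pH 8.0, 24 h at 25° C; product detected by UPLC-MS (ESI-negative) as the N-caprinoyl amino acid mass signal.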

[2] = Synthesis of N-acylamino acids from various fatty acids using purified acylamino acid synthetase, UPLC-MS detection
Method in brief: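 Purified enzyme (200 μg/mL) with 5 mM amino acid, 5 mM sodium fatty acid (3 mM palmitate or stearate, plus 10% methanol), 10 mM ATP, 10 mM MgCl2, 1 mM DTT in 50 mM Tris-HCl pH 8.0, shaken 24 h at 25 °C. Amino acid varied by enzyme; product mass detected by UPLC-MS (ESI-negative).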

[3] = Synthesis of N-caprinoyl-amino acid derivative, N-caprinoyl-D-amino acid and N-caprinoyl-peptide using purified acylamino acid synthetase, UPLC-MS detection; conditions: +ATP
Method in brief: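 Purified enzyme (50 μg/mL) was incubated with 5 mM sodium caprate, 5 mM amino acid derivative, D-amino acid or peptide, 10 mM ATP, 10 mM MgCl2 and 1 mM DTT in 50 mM Tris-HCl, pH 8.0, for 24 h at 25 °C. After acidic methanol stop, UPLC-MS looked for the mass of the N-caprinoyl product.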

B1: SsGH3: GH3 auxin-responsive promoter superfamily from Synechococcus sp. PCC 7335, His-tagged (protein)
chain: MVIHTIPKEILDSVASTGDVFAYHLLRSTGDIGETVLQYLLCLAAKVNLTGIEQDTYNADKVQEQLLNDILRSENKTLYGKKYNFDSLNVDSFRSSLPLTSYENYRESIDNVVQTGNYSQLVSEPITLFQESSGTTGKVKLIPRTNKFTLSAMRAFQAIEAVVQSHFQNPSSSSQRVLALVNTSPTKLTPTGIPRGTGTSGGLNDALQKFKLANYLIDIKYSSPSPVFLISNTEAAYYCHLLFGLLDSDINDISANFAATVLNAMKILEKAWTQLVEDIRQGKLYAGLDIDEATRRELEIRLRANPERARELQAYFEEGFEGILPRIWPSLSCIQCITTGSMQLYTDALRYYSGTVPFFSGSYGASEAWIGVNLDPEREPPAFVVTPHTAFFEFIPQDAIDQEQSATVCLTDLKPGESYEVVVTNMSGLYRYRVGDVVRCVGYHHKSPMIEFMYRRQTLLNLFGEKVSEDVIYSALSTTLREFGMAIQDIDYTCRHEFEGTPWRYVVYLEPADYEGCSSQHEMVQQRLDEVLCNLSDRYRQLREVGSIGSLKLKLVREGTFSGLKTRLLSQEHSDSQFKMPRLLTETALISFMESSL
modifications: His-tag; Synechococcus PCC 7335
notes: GH3 auxin-responsive promoter superfamily from Synechococcus sp; PCC 7335, His-tagged
signal of molecular weight corresponding to N-caprinoyl amino acid ([1]; substrates GABA and sodium caprate): − | signal of molecular weight corresponding to N-caprinoyl amino acid ([1]; substrates Gly and sodium caprate): + | signal of molecular weight corresponding to N-caprinoyl amino acid ([1]; substrates L-Ala and sodium caprate): + | signal of molecular weight corresponding to N-caprinoyl amino acid ([1]; substrates L-Arg and sodium caprate): − | signal of molecular weight corresponding to N-caprinoyl amino acid ([1]; substrates L-Asn and sodium caprate): − | signal of molecular weight corresponding to N-caprinoyl amino acid ([1]; substrates L-Asp and sodium caprate): + | signal of molecular weight corresponding to N-caprinoyl amino acid ([1]; substrates L-Cys and sodium caprate): − | signal of molecular weight corresponding to N-caprinoyl amino acid ([1]; substrates L-Gln and sodium caprate): − | signal of molecular weight corresponding to N-caprinoyl amino acid ([1]; substrates L-Glu and sodium caprate): − | signal of molecular weight corresponding to N-caprinoyl amino acid ([1]; substrates L-His and sodium caprate): − | signal of molecular weight corresponding to N-caprinoyl amino acid ([1]; substrates L-Ile and sodium caprate): + | signal of molecular weight corresponding to N-caprinoyl amino acid ([1]; substrates L-Leu and sodium caprate): + | signal of molecular weight corresponding to N-caprinoyl amino acid ([1]; substrates L-Lys and sodium caprate): − | signal of molecular weight corresponding to N-caprinoyl amino acid ([1]; substrates L-Met and sodium caprate): + | signal of molecular weight corresponding to N-caprinoyl amino acid ([1]; substrates L-Phe and sodium caprate): − | signal of molecular weight corresponding to N-caprinoyl amino acid ([1]; substrates L-Pro and sodium caprate): − | signal of molecular weight corresponding to N-caprinoyl amino acid ([1]; substrates L-Ser and sodium caprate): + | signal of molecular weight corresponding to N-caprinoyl amino acid ([1]; substrates L-Thr and sodium caprate): − | signal of molecular weight corresponding to N-caprinoyl amino acid ([1]; substrates L-Trp and sodium caprate): − | signal of molecular weight corresponding to N-caprinoyl amino acid ([1]; substrates L-Tyr and sodium caprate): − | signal of molecular weight corresponding to N-caprinoyl amino acid ([1]; substrates L-Val and sodium caprate): + | signal of molecular weight corresponding to N-caprinoyl amino acid ([1]; substrates β-Ala and sodium caprate): + | signal of molecular weight corresponding to N-acylamino acid ([2]; substrates L-Ala and Capric acid): + | signal of molecular weight corresponding to N-acylamino acid ([2]; substrates L-Ala and Caproic acid): + | signal of molecular weight corresponding to N-acylamino acid ([2]; substrates L-Ala and Caprylic acid): + | signal of molecular weight corresponding to N-acylamino acid ([2]; substrates L-Ala and Lauric acid): + | signal of molecular weight corresponding to N-acylamino acid ([2]; substrates L-Ala and Linoleic acid): − | signal of molecular weight corresponding to N-acylamino acid ([2]; substrates L-Ala and Palmitic acid): − | signal of molecular weight corresponding to N-acylamino acid ([2]; substrates L-Ala and myristic acid): + | signal of molecular weight corresponding to N-caprinoyl compound ([3]; substrates Carnosine and sodium caprate): − | signal of molecular weight corresponding to N-caprinoyl compound ([3]; substrates D-Ala and sodium caprate): + | signal of molecular weight corresponding to N-caprinoyl compound ([3]; substrates D-Asp and sodium caprate): + | signal of molecular weight corresponding to N-caprinoyl compound ([3]; substrates D-Cys and sodium caprate): − | signal of molecular weight corresponding to N-caprinoyl compound ([3]; substrates D-Glu and sodium caprate): + | signal of molecular weight corresponding to N-caprinoyl compound ([3]; substrates D-Ile and sodium caprate): − | signal of molecular weight corresponding to N-caprinoyl compound ([3]; substrates D-Lys and sodium caprate): − | signal of molecular weight corresponding to N-caprinoyl compound ([3]; substrates L-Asp-L-Phe and sodium caprate): − | signal of molecular weight corresponding to N-caprinoyl compound ([3]; substrates L-Gly-L-Gly and sodium caprate): + | signal of molecular weight corresponding to N-caprinoyl compound ([3]; substrates Sarcosine and sodium caprate): − | signal of molecular weight corresponding to N-caprinoyl compound ([3]; substrates Taurine and sodium caprate): +
